Reference: the nanobody polyreactivity screen of Harvey et al. (2022)

Test: yeast display, Sf9 membrane polyspecificity reagent, FACS + sequencing; frameworks hold sequencing errors
Method in brief: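 Galactose-induced (36–48 hours) yeast carrying a synthetic nanobody display library were exposed to 10% biotinylated, detergent-solubilized Sf9 membrane reagent at 4 °C for 1 hour. FACS followed streptavidin microbead enrichment, using low and high (top ~1%) gates for expression (anti-HA) and reagent binding (streptavidin). Colony PCR, MiSeq 2 × 250 sequencing and CDR-length filtering followed. Labels for polyreactivity reflect the gate of origin.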

Sequence | polyreactivity (PSR sort gate)
QVPLVESGGGLVQAGGSLRLSCAASGSTLTSNAMGWYRQAPGKERELVAAIRSGGSTNYADSVKGRFTISRDNAKNTVYLQMNSLKPEDTAVYYCNTDFLWQGYGYSRVSYDYWGQGTQVTVSS | low polyreactivity
QVQLVESGGGLVQAGGSLRLSCAASGRIYGGYAMGWYRQAPGKERELVAAISSRGGSTYYADSVKGRFTISRDNAKNTVYFQMNSLKPEDTAVYYFADDGRVKGWGQGTQVTVSS | high polyreactivity
QVHLVESGGGLVQAGGSLRLSWAASGFIFKNYAMGWYRQAPGKERELVAVISRSGGSTYYADSVKGRFTISRDNAKNTVYLQMNSLKPEDTAVYYCNADRWKSGYWRYDYWGQGTQVTVSS | low polyreactivity
QVQLVESGGGLVQAGGSLRLSCAASGSIFYSNAMGWYRQAPGKEREFVAAISAGGGSTYYADSVKGRFTISRDNAKNPVYLQMNSLKPEDTAVYYCAAQQYKIIYPYDYWGQGTQVTVSS | low polyreactivity
QVQLVESGAGLVQAAGSLRISSAHSGFSFTYNAMGWYRQAPGKVTEFVASISRSGGRTYYADSVKGRFTISRDNANNTVYLQMNSLKPEDTAVYYCAARNAYVYGMDSWGKGTQVTVSS | low polyreactivity
QVQLVESGGGLVQAGGSLRLSCAASGSIFYSNAMGWYRQAPGKERELVAAITSGGRTYYADSVKGRFTISRDNAKNTVYLQMNSLKPEDTAVFYCAARYYLGSWSDYYYWGQGTQVTVSS | high polyreactivity
QVQLVESGGGLVQAGGSLRLSCAASGFTFHNNVMGWYRQATGKERELVATISKSGGSTYYADSVKGRFTISRDNAKNTVYLQMNSLKPEDTAVYYCARRYRDYDYWGQGTQVTVSS | high polyreactivity
QVQLVESRGVLVQAGGSLRLSCAASGYIFAPYAMGWYRPAPGKERELVSAISWRGGSTYYADSVKGRFTISRDNAKITVYLQMNSLKPVDTAVYFCAAQGYGSGLSYYRFDFWGLGTQVTVSS | high polyreactivity
QVQLVESGGGLVQAGGSLRLICAASGRTFDRYDMGWYRPAPGKERALVATISSSGGSTYYADSVKGRFTISRDNAKNTVYLQMNSLKPEDTAVYYCAADPSGYYWGQGSQVTVSS | low polyreactivity
QVQLVESGGGLVQAGGSLGLSCAASGFTFDLYAMGWYRQAPGKERALVAAISWSGGSTRYADSVKGRFTISRDYAKNTVYLQMNSLKPEDTAVYYCARQPRLYFKGKLYGYWGQGTQVTVSS | high polyreactivity
QVQLVESGGGLVQAGGSLRLSCAASGRTFRSNAMGWYRQAPGKERELVAAISNSGASTYYADSVKGRFTISRDNAKNTFYLQMNSLKPEDTAVYYCAADYYRPYRYDYWGQGTQVTVSS | high polyreactivity
QVQLVESGGGLVQAGGSLRLSCAASGFTFAVYAMGWYRQAPGKERELVAAISRSGTRTYYADSVKGRFTISRDNAKNTVYLQMNSMKPEDTAVYYCAADKYRHGYDYWGQGTQVTVSS | low polyreactivity
QVQLVESGGGLVQAGGSLRLSCAASGRTFQFYAMGWYRPAPGKERELVAAITYSGDSTYYADSVKGRFTISRDNAKNTVYLQMNSLKPEDTAVYYCAAGVWFYWYEYDYWGQGTQVTVSS | high polyreactivity
QVQLVESGGGLVQAGGSLRLSCAASGRTLIHYAMGWYRQAPGKERELVATINIGGRTYADSVKGRFTISRDNAKNTVYLQMNSLKPEDTAVYYCAADHRYSARRSVPTLYDYWGQGTQVTVSS | low polyreactivity
QVQLVESGGGLVHAGCSLPLTCAASGSTLDANAMGSYRQAPGKEMELVAAISSGGITYYADSVKGRFTFSRDNAKSTVYLQMNCLKPEDTAGYYCANRGQGFQFGRDYWGQGTQVTVSS | low polyreactivity
QVQLVESGGGLVQAGGSLRLSCAASGRTFPSYAMGWYRQAPGKERELVAAITRGGSTNYADSVKGRFTISRDNAKNTVYLQMNSLKPEDTAVYYCAAARWRWQLARDDYWGEGTQVTVSS | high polyreactivity
QVQLVESGGGLVQAGGSLRLSCAASGSTFGDYAMGWYRPAPGKERELVAAITIGGITTYADSVKGRFTISRDNAKNTVYLQMNSLKPEDTAVYYCAAAERGDWDDYWGQGTQVTVSS | low polyreactivity
QVQLVESGGGLVQAGGSLRLSCAASGRIFRWYTMGWYRQAPGKERELVARISSGGITYYADSVKGPFTISRDNAKNTVYLQMNSLKPEDTAVYYCNTYVSRNFDYWGQGTQLTVSS | high polyreactivity
QVQLVESGGGLVQAGGSLRLSCAASGSIFYISAMGWYRQAPGKERELVAAISWIDDTTYYADSVKGRFTISRDNAKNTVYLQMNSLKPEDTAVYYCAAELENVYAGGQMDYWGQGTQVTVSS | high polyreactivity
QVQLVESGGGLVQAGGSLRLSCAASGSIFDSYAMGWSRQAPGKERELVAAISWSGGSTYYADSVKGRFTISRDNAKNTVSLQMNSLKPEDTAVYYCNTDWADYYYYTDYDYWGQGTQVTVSS | high polyreactivity
QVQLVESGGGLVQAGGSLRLSCAASGRIILLYTMGWYRQAPGKERELVAAISRSGGITYADSVKGRFTISRDNAKNTVYLQMNSLKPEDTAVYYCAKGGSSHAKGHFDYWGQGTQVTVSS | low polyreactivity
QDQLVESVGGIVQAGGSLRLRCAASGFIYSRNAIGWYSEAPGKDREFVARIRWSVGSTYYADSVKGRFTISRENAKNTVYLMMTSLKPEVTAVYSCAADYYKRYKYLYDYWGQGTQVTVSS | high polyreactivity

Sequence | polyreactivity (PSR sort gate)
QVQLVESGGGLVQAGGSLRLSCAASGRIIYAYAMGWYRQAPGKERELVAAITIGGNTNYADSVKGRFTISRDNAKNTVYLQMNSLKPEDTAVYYCNARNYYYPWRGYHVVGSNDLGYWGQGTQVTVSS | low polyreactivity
QVQLVESGGGLVQAGGSLRLSCAASGITFRGNVMGWYRQAPGKERELVAAISGSSGRTYYADSVKGRFTISRDNAKNTVYLQMYSLKPEDTAVYYCAATRTVRSYSIAPALGYWGQGTQVTVSS | high polyreactivity
QVQLVESGGGLVQAGGSLRLSCAASGSIFFQYAMGWYRQAPGKERELVAAISTGGSTNYADSVKGRFTISRDNAKNTVYLQMNSLKPEETAVYYCAAYSRYKGYQYDYWGQGTQVTVSS | low polyreactivity
QVQLVESGGGLVQAGGSLRLSCAASGRIFGYNSMGWYRQAPGKERELVAAIRRSGGRTFYADSVKGRFTLSRDNAKNTVYLQMNRLKPEDTAVYYCAVRGPGTSTYWYHEYEYWGQGTQVTVSS | high polyreactivity
QVQLVESGGGLVQAGGSLRLSCAASGRTFTGYAMGWDRQAPGKERELVAGISYRGGSTYYADSVKGRFTISRDNAKNTVYLQMNSLKQEVTAVYYCARDYSRHKGDYWGQGTQVTVSS | low polyreactivity
QVQLVESGGGLVQAGGSLRLSCAASGRTFATYTMGWYRQAPGQERELVAAITRGGGSTFYADSVQGRFTITRDHAKNPVYLQMNSLKPEDTAVYYFAARIPGSFKSGYWGQGTQVTVSS | high polyreactivity
QVQLVESGGGLVQAGGSLRLSCAASGSIYQNAMGWYRQAPGKERELVAAITSSGGRTYADSVKGRFTISRDNAKNTVYLQMNSLKPEDTAVYYCAKDSTADELTGFDYWGQGTQVTVSS | low polyreactivity
QVQLVESGGGLVQAGGSLRLSCAASGITFKSYAMGWYRQAPGKERELVAAIARRGGSTYYADSVKGRFTISRDNAKNTVYLQMNSLKPEDTAVYYCAADSGREPKGPSRLTYWGQGTQVTVSS | high polyreactivity
QVQLVESGGGLVQAGGSLRLSCAASGIIFPYNTMGWYRQAPGKERELVASIDDGGSTNYADSVKGRFTISRDNAKNTVYLQMNSLKPEDTAVYYCNADLFFIYVRQPGYDYWGQGTQVTVSS | low polyreactivity
QVHLVESGGGLVQAGGSLGLSCAASGNIFSSNAMGWYTQAPGKERELVDAITRSGGSTYYADSVKGRFTISRDNAKKTVYLQLNSQKPEDTAVYYGAARHYPRNSWGYDYWGQGTQVTVSS | high polyreactivity
QVQLVESGGGIVQAGGSLRLSCAASGIIIFYKAMGWDRQAPGKERELVATISRRGGSTYYADSVKGRFTISRDNAKNTVYLQMNSLKPEDTAVYYCARDVGAGSKISRLSSYNYWGQGTQVTVSS | low polyreactivity
QVQLVESAGGLVQAGGSLRLSCAASGYIFSDNTMGWYRQAPGKERELVAVITSGTSTSYADSVKGRFTISRDNAKNTVYLQMNSLKPEDSAVYYAARTGQYKTYGEYDYWGQGTQVTVSS | low polyreactivity
QVQLVDSGGGLVQAGGSLRLSCAASGRIFDYNAMGWYRQAPGKERELVAVITGTGGTTYYADSVKGRFTISRDNAKNTVYLQMNSVKPEDTAVYYCNADDYRLTSLYIPERYDYWGQGTQLTVSS | low polyreactivity
QVQLVESGGGLVQAGGSLRLSCAASGFTFIGYAMGWSRPAPGKERELVAAITWRGGRTYYADSVKGRFSISRDNAKNTVYLQMNSLKTEETAVYYCAADGYTVGNSYYWGHGTQVTVSS | high polyreactivity
QVQLVESGGGLVQAGGSLRLSCAASGSIFLDYAMGWYRQAPGKERELVAGITISGGSTYYAVSVKGRFTISRDNAKNTVYLQMYSLNREDTAVYYCAKVAPRSSSSQEYYYWGQGTQVTVSS | low polyreactivity
QVQLVESGGGLVQAGGSLRLSCDASGFIFYGYVMGWYRQAPGKERELVAAITIGGSTNYADSVKGRFTISRDNAKNTVYLQRNSLKPEDTAVYYCAADQRSVTVGMDSWGQGTQVTVSS | low polyreactivity
QVQLVESGAGLVQAGGSLRLSCAASGRTFWSYAMGWYRQAPGKERELVAAIRTSDGITYYADSVKGRFTISRDNAKNTVYLQMNSLKPEDTAVYYCAAENWYNYDYWGQGTQVSVSS | low polyreactivity
QVQLVESGGGLVQAGGSLRLSCAASGFTSCDNDMGWYRQAPGKERELVAAISRGGSTNYADSVKGRFTISRDNAKNTVYLQMNSLKPEDTAVYYCATAAVTPVWYDYWGKGTQVTVSS | low polyreactivity
QVQLVESGGGLVQAGGSLRLSCAASGSTFVSYVMGWYRQAHGKERELVATSSGRAGRTYYADSVKGRFTISRDNAKNTVSLQMNSLKPEDTAVYYCNAGQWRYPGLYYYWGQATQVTVSS | high polyreactivity
QVQLQESGGGLVQAGGSLRLTCAASGSIFLNSEMGWYRQAPGKERELVAAIATGTSTNYADSVKGRFTISRDNAKNTVYLQMNSLKPEDTAVYYCATYHYWGQGTQVTVSS | low polyreactivity
QVQLVESGGGLVQAGGSLRLSCAASGITFNKNAMGWYRQAPGKEREFVAAITRRGGSTYYADSVKGRFTISRDNAKNTVYLQMNSLKPEDTAVYYCAARPYWSYRRYDYWGQGTQVTVSS | high polyreactivity
